The source of these data is publication PMC6028919, “Scc2 Is a Potent Activator of Cohesin’s ATPase that Promotes Loading by Binding Scc1 without Pds5” (Molecular Cell, 2018).

The target of experiment [1] is cohesin tetramer (Smc1, Smc3, Scc1, Scc3) (S. cerevisiae) (UniProt P32908).
In experiment [2] the target is T1, cohesin tetramer (Smc1, Smc3, Scc1, Scc3) (S. cerevisiae, UniProt P32908 1-1225; P47037 1-1230; Q12158 1-566; P40541 1-1150).
T1 construct: Smc1, S. cerevisiae, synthetic codon-optimised gene; Smc3, S. cerevisiae, synthetic codon-optimised gene; Scc1 (kleisin; Mcd1), S. cerevisiae, synthetic codon-optimised gene; Scc3, S. cerevisiae, synthetic codon-optimised gene; also called wild-type tetramers; source: Sf9, co-expressed (baculovirus), purified (StrepTrap, gel filtration); not shown: 2xStrepII, C-terminal, …
The experiment is described as follows: co-IP; GFP-Scc2 held by anti-GFP antibody on Protein G Dynabeads; tetramers and GFP-Scc2 in an ATPase reaction, 25°C, 45 min, then beads 45 min at room temperature; washes with 100 mM NaCl; Coomassie-stained SDS-PAGE. Particulars: both partners purified.

Experiment [3] concerns the target T2, cohesin tetramer with scc1Δ152–256 (Smc1, Smc3, Scc1Δ152-256, Scc3) (S. cerevisiae, UniProt P32908 1-1225; P47037 1-1230; Q12158 1-566; P40541 1-1150, Δ152-256).
T2 construct: Smc1, S. cerevisiae, synthetic codon-optimised gene; Smc3, S. cerevisiae, synthetic codon-optimised gene; Scc1 (kleisin; Mcd1), S. cerevisiae, synthetic codon-optimised gene; Scc3, S. cerevisiae, synthetic codon-optimised gene; source: Sf9, co-expressed (baculovirus), purified (StrepTrap, gel filtration); not shown: 2xStrepII, C-terminal, kept; copies: + + +
The description is as above. Conditions: both partners purified.

T2 sequence (P32908 whole entry, stated change not applied, chain 1 of 4): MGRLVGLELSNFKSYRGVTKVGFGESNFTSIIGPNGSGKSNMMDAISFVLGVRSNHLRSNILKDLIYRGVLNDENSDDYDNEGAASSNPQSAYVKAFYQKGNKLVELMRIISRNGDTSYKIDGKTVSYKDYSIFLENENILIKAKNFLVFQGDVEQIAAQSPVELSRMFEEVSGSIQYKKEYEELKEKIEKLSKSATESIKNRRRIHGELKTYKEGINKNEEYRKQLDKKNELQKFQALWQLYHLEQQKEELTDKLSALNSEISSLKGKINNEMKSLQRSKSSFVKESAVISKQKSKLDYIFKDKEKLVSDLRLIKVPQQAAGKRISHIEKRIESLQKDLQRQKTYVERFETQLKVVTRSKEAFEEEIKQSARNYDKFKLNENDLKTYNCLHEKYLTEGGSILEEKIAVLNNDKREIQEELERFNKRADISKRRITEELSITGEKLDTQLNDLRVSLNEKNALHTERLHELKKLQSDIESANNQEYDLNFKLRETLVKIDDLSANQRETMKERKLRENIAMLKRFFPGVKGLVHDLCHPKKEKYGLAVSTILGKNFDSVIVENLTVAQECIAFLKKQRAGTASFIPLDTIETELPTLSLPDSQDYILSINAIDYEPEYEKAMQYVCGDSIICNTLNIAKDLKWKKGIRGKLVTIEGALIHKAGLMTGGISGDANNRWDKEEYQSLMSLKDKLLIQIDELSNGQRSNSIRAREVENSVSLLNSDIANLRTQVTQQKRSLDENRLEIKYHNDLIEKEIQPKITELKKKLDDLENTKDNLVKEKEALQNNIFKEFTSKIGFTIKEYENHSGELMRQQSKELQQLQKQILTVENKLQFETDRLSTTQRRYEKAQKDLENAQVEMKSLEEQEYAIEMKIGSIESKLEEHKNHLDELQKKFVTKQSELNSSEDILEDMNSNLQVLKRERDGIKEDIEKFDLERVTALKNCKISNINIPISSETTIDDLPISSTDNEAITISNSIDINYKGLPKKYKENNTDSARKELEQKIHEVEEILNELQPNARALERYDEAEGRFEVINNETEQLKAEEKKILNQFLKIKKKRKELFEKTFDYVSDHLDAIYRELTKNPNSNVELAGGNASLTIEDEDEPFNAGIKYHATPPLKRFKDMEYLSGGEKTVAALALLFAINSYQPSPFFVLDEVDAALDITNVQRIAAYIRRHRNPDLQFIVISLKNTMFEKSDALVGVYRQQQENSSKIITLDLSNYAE
T2 sequence (P47037 whole entry, stated change not applied, chain 2 of 4): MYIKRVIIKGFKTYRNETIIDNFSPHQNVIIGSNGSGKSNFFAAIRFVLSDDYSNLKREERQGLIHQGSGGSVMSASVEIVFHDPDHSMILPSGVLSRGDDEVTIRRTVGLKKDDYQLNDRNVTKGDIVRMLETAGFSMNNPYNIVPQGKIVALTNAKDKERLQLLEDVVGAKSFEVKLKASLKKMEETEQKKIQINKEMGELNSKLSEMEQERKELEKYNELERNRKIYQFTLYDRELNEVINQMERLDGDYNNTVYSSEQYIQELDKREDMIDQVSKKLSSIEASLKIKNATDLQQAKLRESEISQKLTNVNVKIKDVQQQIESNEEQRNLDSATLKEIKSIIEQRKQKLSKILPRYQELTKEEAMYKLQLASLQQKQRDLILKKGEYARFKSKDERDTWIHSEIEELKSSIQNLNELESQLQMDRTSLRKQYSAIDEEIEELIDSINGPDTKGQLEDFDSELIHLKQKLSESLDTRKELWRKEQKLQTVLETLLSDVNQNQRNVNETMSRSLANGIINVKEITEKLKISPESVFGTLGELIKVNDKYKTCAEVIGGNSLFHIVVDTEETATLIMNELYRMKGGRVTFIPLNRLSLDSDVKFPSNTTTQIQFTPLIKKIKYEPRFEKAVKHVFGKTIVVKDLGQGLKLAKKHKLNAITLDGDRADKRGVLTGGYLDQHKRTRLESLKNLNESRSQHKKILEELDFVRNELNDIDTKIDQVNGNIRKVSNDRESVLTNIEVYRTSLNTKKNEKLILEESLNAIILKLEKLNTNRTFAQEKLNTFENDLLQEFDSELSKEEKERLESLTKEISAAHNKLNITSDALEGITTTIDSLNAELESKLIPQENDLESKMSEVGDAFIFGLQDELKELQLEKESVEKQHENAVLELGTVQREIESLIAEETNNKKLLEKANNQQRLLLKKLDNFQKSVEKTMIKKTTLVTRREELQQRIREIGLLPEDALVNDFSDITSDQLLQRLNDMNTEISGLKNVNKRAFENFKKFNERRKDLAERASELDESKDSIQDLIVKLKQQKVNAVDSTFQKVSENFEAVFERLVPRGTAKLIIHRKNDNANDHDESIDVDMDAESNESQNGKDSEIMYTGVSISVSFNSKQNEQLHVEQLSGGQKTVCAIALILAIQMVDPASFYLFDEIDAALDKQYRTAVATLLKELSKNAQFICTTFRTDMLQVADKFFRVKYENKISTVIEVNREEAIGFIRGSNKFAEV
T2 sequence (Q12158 other isoform, or with tags, fused parts or gaps Δ152-256 | Δ152-256 | mutant, chain 3 of 4): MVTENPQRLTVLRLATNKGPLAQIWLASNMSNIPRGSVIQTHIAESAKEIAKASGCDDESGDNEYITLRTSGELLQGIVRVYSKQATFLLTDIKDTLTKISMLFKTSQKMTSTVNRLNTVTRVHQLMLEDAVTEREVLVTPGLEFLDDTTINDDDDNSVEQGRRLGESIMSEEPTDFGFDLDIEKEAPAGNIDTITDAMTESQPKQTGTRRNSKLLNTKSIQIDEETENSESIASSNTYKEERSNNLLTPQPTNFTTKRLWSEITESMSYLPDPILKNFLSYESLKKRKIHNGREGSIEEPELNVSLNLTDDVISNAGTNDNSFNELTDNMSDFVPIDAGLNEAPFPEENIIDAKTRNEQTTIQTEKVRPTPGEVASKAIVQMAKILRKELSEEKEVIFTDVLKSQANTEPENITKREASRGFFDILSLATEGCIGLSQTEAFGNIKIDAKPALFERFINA
T2 sequence (P40541 whole entry, stated change not applied, chain 4 of 4): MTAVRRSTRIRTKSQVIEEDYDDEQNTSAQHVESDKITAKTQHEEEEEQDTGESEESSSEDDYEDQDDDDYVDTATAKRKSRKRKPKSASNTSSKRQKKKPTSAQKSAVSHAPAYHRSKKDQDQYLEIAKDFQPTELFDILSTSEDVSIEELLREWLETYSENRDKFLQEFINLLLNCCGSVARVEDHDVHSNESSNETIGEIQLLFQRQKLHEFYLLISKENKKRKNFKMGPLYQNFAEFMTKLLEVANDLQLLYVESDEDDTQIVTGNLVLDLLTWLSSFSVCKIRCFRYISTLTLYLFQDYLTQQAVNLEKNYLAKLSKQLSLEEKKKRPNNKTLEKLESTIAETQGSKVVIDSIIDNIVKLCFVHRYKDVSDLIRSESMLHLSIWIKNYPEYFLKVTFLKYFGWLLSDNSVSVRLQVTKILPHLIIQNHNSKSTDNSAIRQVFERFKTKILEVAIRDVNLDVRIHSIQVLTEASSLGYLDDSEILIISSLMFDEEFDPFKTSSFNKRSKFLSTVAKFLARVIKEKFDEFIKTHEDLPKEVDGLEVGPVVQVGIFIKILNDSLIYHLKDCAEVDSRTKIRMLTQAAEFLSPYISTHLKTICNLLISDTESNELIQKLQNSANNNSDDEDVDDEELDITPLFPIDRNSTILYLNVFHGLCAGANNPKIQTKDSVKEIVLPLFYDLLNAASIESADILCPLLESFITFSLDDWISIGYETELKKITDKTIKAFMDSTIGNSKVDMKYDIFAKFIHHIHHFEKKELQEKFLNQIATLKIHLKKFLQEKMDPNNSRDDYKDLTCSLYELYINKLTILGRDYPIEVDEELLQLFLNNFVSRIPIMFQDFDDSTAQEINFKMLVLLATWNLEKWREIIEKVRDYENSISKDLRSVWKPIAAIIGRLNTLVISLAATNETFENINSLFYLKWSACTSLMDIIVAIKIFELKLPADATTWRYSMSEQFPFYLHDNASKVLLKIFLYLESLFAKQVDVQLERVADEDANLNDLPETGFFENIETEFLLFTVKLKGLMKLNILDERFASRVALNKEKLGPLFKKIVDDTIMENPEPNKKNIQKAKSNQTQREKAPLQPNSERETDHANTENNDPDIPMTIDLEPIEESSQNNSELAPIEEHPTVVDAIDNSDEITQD

B1: His6-Pds5 (natural protein)
chain: MAKGAVTKLKFNSPIISTSDQLISTNELLDRLKALHEELASLDQDNTDLTGLDKYRDALVSRKLLKHKDVGIRAFTACCLSDILRLYAPDAPYTDAQLTDIFKLVLSQFEQLGDQENGYHIQQTYLITKLLEYRSIVLLADLPSSNNLLIELFHIFYDPNKSFPARLFNVIGGILGEVISEFDSVPLEVLRLIFNKFLTYNPNEIPEGLNVTSDCGYEVSLILCDTYSNRMSRHLTKYYSEIIHEATNDDNNSRLLTVVVKLHKLVLRLWETVPELINAVIGFIYHELSSENELFRKEATKLIGQILTSYSDLNFVSTHSDTFKAWISKIADISPDVRVEWTESIPQIIATREDISKELNQALAKTFIDSDPRVRRTSVMIFNKVPVTEIWKNITNKAIYTSLLHLAREKHKEVRELCINTMAKFYSNSLNEIERTYQNKEIWEIIDTIPSTLYNLYYINDLNINEQVDSVIFEYLLPFEPDNDKRVHRLLTVLSHFDKKAFTSFFAFNARQIKISFAISKYIDFSKFLNNQESMSSSQGPIVMNKYNQTLQWLASGLSDSTKAIDALETIKQFNDERIFYLLNACVTNDIPFLTFKNCYNELVSKLQTPGLFKKYNISTGASIMPRDIAKVIQILLFRASPIIYNVSNISVLLNLSNNSDAKQLDLKRRILDDISKVNPTLFKDQIRTLKTIIKDLDDPDAEKNDNLSLEEALKTLYKASKTLKDQVDFDDTFFFTKLYDFAVESKPEITKYATKLIALSPKAEETLKKIKIRILPLDLQKDKYFTSHIIVLMEIFKKFPHVLNDDSTDIISYLIKEVLLSNQVVGDSKKEIDWVEDSLLSDTKYSAIGNKVFTLKLFTNKLRSIAPDVPRDELAESFTEKTMKLFFYLIASGGELISEFNKEFYPTPSNYQTKLRCVAGIQVLKLARISNLNNFIKPSDIIKLINLVEDESLPVRKTFLEQLKDYVANELISIKFLPLVFFTAYEPDVELKTTTKIWINFTFGLKSFKKGTIFERALPRLIHAIAHHPDIVGGLDSEGDAYLNALTTAIDYLLFYFDSIAAQENFSLLYYLSERVKNYQDKLVEDEIDEEEGPQKEEAPKKHRPYGQKMYIIGELSQMILLNLKEKKNWQHSAYPGKLNLPSDLFKPFATVQEAQLSFKTYIPESLTEKIQNNIKAKIGRILHTSQTQRQRLQKRLLAHENNESQKKKKKVHHARSQADDEEGDGDRESDSDDDSYSPSNKNETKKGHENIVMKKLRVRKEVDYKDDEDDDIEMT
B1: the Scc2-stimulated ATPase activity of cohesin tetramers with a three-fold molar excess of Pds5, in the absence of DNA in experiment [1] was 2 fold.

B2: GFP-ΔN132-Scc2-1xStrepII (domain or fragment, S. cerevisiae, UniProt Q04002 133-1493, looked up)
chain: KSEIVSRPEAKHKLESVTSNAGNLSFNDNSSNKKTKTSTGVTMTQANLAEQYLNDLKNILDIVGFDQNSAEIGNIEYWLQLPNKKFVLTTNCLTKLQMTIKNITDNPQLSNSIEITWLLRLLDVMVCNIKFSKSSLKMGLDDSMLRYIALLSTIVLFNIFLLGKNDSNLHRESYIMEPVNFLSDLIESLKILTIEYGSLKIEFDTFQEALELLPKYIRNGPFLDDNVTAKLVYIFSDLLMNNDIEATTNIQFQSFWDNVKRISSDILVSLFGSFDQQRGFIIEELLSHIEKLPTKRIQKKLRKVGNQNIYITDFTFTLMSMLENINCYSFCNQMKDIAPENIDLLKNEYKKQEEFLFNIVEHINDTILERFFKNPSALRYVIDNFVQDLLLLISSPQWPVTEKILSSLLKRLLSVYSPSMQVSANIETICLQLIGNIGSTIFDIKCSTRDHEDNNLIKMINYPETLPHFFKSFEECIAYNETIKCRRSATRFLWNLRLGTILILEEYTKDAKEQIITVDNELKKILEQIKDGGLGPELENREADFSTIKLDYFSILHAFELLNLYDPYLKLILSLLAKDKIKLRSTAIKCLSMLASKDKVILSNPMVKETIHRRLNDSSASVKDAILDLVSINSSYFEFYQQINNNYNDDSIMVRKHVLRINEKMYDETNDIVTKVYVIARILMKIEDEEDNIIDMARLILLNRWILKVHEVLDQPEKLKEISSSVLLVMSRVAIMNEKCSQLFDLFLNFYLLNKEAHSKEAYDKITHVLTILTDFLVQKIVELNSDDTNEKNSIVDKQNFLNLLAKFADSTVSFLTKDHITALYPYMVSDEKSDFHYYILQVFRCTFEKLANFKQKFLYDLETTLLSRLPKMNVREIDEAMPLIWSVATHRHDTARVAKACSSCLSHLHPYINKANNEEAAIVVDGKLQRLIYLSTGFARFCFPKPSNDKIAFLQEGETLYEHITKCLLVLSKDKITHVIRRVAVKNLTKLCGNHPKLFNSRHVLHLLDKEFQSDQLDIKLVILESLYDLFLLEERKSVRNTGVNSTLSSNSILKKKLLKTNRVEFANDGVCSALATRFLDNILQLCLLRDLKNSLVAIRLLKLILKFGYTNPSHSIPTVIALFASTSQYIRHVAYELLEDLFEKYETLVFSSLSRGVTKAIHYSIHTDEKYYYKHDHFLSLLEKLCGTGKKNGPKFFKVLKRIMQSYLDDITDLTSTNSSVQKSIFVLCTNISNITFVSQYDLVSLLKTIDLTTDRLKEVIMDEIGDNVSSLSVSEEKLSGIILIQLSLQDLGTYLLHLYGLRDDVLLLDIVEESELKNKQLPAKKPDISKFSAQLENIEQYSSNGKLLTYFRKHVKDT
notes: Scc2, S. cerevisiae, synthetic codon-optimised gene; also called GFP-Scc2; Scc2-GFP; source: Sf9, baculovirus, purified (StrepTrap, gel filtration); not shown: GFP, N-terminal, kept; StrepII, C-terminal, kept
As to B2, the binding result in experiment [2] and in experiment [3] was “binds” in each case.
